# The nanobody polyreactivity screen of Harvey et al. (2022)
# Experiment: yeast display, Sf9 membrane polyspecificity reagent, FACS + sequencing; frameworks hold sequencing errors
# Outline: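 A nanobody's polyreactivity label depends on the gate it was sorted from. Yeast display cells were stained with 10% biotinylated, detergent-solubilized Sf9 membrane reagent for 1 hour at 4 °C, enriched on streptavidin microbeads and sorted by FACS. The low and high (top ~1%) gates were set on anti-HA fluorescence for expression and streptavidin fluorescence for reagent binding.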
row,Sequence,polyreactivity (PSR sort gate)
1,QVQLVESGGGLVQAGGSLRLSCAASGSILDSNAMGWYRQAPGKERELVAAITSGGSTYYADSVKGRFTISRDNAKNTVYLQMNSLKPEDTAVYFCAAAFLGYGAVQPSYEGGYWGQGTQVTVSS,low polyreactivity
2,QVQLVESGGGLVQAGGSLRLSCAASGSILDYNTMGWYIQAPGKERELVAAIDDDSTYYADSVKGRFTISRDNAKNTVYLQMNSLKPEDTAVYYSAVDWYYGDTYGYYYWYDYWGQGTQVTVSS,high polyreactivity
3,QVQLVESGGGLVQAGGSLRLSCAASGSILGANVMGWYRQAPGKERELVASISKSGGNTFYADSVKGRFTISRDNAKNTVYLQLNRLKPEDTAVYYCAKRAHRYSYRYTYDYWGQGTQVTVSS,low polyreactivity
4,QVQLVESGGGLVQAGGSLRLSCAASGSILGDNAMGWYRQAPGKERELVAAISYRGGSTYADSVKGRFTISRDNAKNTVYLQMNRLKPEDTAVYYCNITDIDDSQYREYEYWGQGTQVTVSS,low polyreactivity
5,QVQLVESGGGLVQAGGSLRLSCAASGSILGIYGMGWYRQSRGKERELVAAISYSGGSTYYADSVKGRFSISRDNAKNTVYLQMNSLKPEDTAVYYCAADLTRGVSYYVDFYYWGQGTQVTVSS,low polyreactivity
6,QVQLVESGGGLVQAGGSLRLSCAASGSILGYYVMGWYRQAPGKERELVAVISSDGSTYYADSVKGRFTISRDNAKNTVYLQMNSLKPEDTAVYYCNADYYVEYDYWGQGTQVTVSS,low polyreactivity
7,QVQLVESGGGLVQAGGSLRLSCAASGSILHVYAMGWYRQAPGKERELVAAISKSGTRTYYAVSVKGRFTISRDNAKNTVYLQMNRLKPEDTAVYYCAAERSQYVYSTDPYGYDYWGQGTQVTVSS,high polyreactivity
8,QVQLVESGGGLVQAGGSLRLSCAASGSILIGNAMGWYRQAPGKERELVAAIRSGGSTNYADSVKGRFTISRDNAKNTVYLHMNSLKPEDTAVYYCARDVYVYYPYYAYDYWGQGTQVTVSS,low polyreactivity
9,QVQLVESGGGLVQAGGSLRLSCAASGSILIHYTMGWYRQAPGKERELVAAISSTGGSTYYADSVKGRFTISRDNAKNTVYLQMNSLKPEDTAVYYCNAKQYWYYFWAYQQRDVESDYWGQGTQVTVSS,low polyreactivity
10,QVQLVESGGGLVQAGGSLRLSCAASGSILIYNAMGWYRQARGKERELVAAISTSGGSTYYADSVKGRFTISRDTAKNTVYLQMNSLKPEDTAVYYCAARAYPYGYWGQGTQVTVSS,low polyreactivity
11,QVQLVESGGGLVQAGGSLRLSCAASGSILKPYAMRSYRQAPGKERELVAAISGTGGSTYYADSVKGRFTISRDNAKNTVYLQMNSLKPEDTAVYYCNADEFRYAFEYWGQGTQVTVSW,high polyreactivity
12,QVQLVESGGGLVQAGGSLRLSCAASGSILLFYVMGGYRQAPGKERELVAAITSSGGGTYYADSVKGRFTISRDNAKNTVYLQMNSLKPEDTALYYCNADDDYYGESYGPEFDYWGQGTQVTVSS,low polyreactivity
13,QVQLVESGGGLVQAGGSLRLSCAASGSILLGYDLGWYRQAPGKERELVASIDTNGGSTYYADSVKGRFTISRDNAKNTVYLQMNSLKPEDTAVYYCNADPSFVGGTYDYWGQGTQVTVSS,low polyreactivity
14,QVQLVESGGGLVQAGGSLRLSCAASGSILPYYAMGWSRQAPGKERELVATITDGTDTYYADSVKGRFTISRDNAKNTVYLQMNSLKPEDTAVYYCKADGYVYYMHEDYWGQGTQVTVSS,low polyreactivity
15,QVQLVESGGGLVQAGGSLRLSCAASGSILPYYAMGWYRQAPGKERELVATITDGTDTYYADSVKGRFTISRDNAKNTVYLQMNSLKPEDTAVYYCNADGYVYYLHEDYWGQGTQVTVSS,low polyreactivity
16,QVQLVESGGGLVQAGGSLRLSCAASGSILQQIYAMGWYRPAPGKERELVAAISASGGSTYYADSVKGRFTISRDNAKNTVYLQMNSLKPEDTAVYYCNKVGYYASVLGYDYWGQGTQVTVSS,high polyreactivity
17,QVQLVESGGGLVQAGGSLRLSCAASGSILQQYTMGWYRPAPGKERELVAAISSSGSSTYYADSVKGRFTISRDNAKNTVYLQMNSLKPEDTAVYYCNADYHDKFYWGQGTQVTVSS,low polyreactivity
18,QVQLVESGGGLVQAGGSLRLSCAASGSILQSYAMGWYRQAPGKERELVAAISGSGGSTYYADSVKGRFTISRDNAKNTVYLQMNSLKPEDTAVYYCAKGPLYRTSRGEFGYWGQGTQVTVSS,low polyreactivity
19,QVQLVESGGGLVQAGGSLRLSCAASGSILQVYAMGWYRQAPGKERELVAGISWGGGRTYADSVKGRFTISRDNAKNTVYLQMISLKPEDTAVYYCNKVWRFGYYGSYYWGQGTLVTVSS,high polyreactivity
20,QVQLVESGGGLVQAGGSLRLSCAASGSILQYKAMGWYRQAPGKERELVADITSSGGSTYYADSVKGRFTISRDNAKYTVSLQMNSLKPEDTAVYYFAKDTHWAYYWGQGTQVTVSS,low polyreactivity
21,QVQLVESGGGLVQAGGSLRLSCAASGSILRRNTMGWYRQAPGKERELVAAINKSGGSTYYADSVKGRFTISRDNAKNTVYLQMNSLKPEDTAVYYCNRDNYYGTKYDYWGQGTQVTVSS,low polyreactivity
22,QVQLVESGGGLVQAGGSLRLSCAASGSILSAYAMGWSRQAPGKERELVAAISWSGGSTYYADSVKGRFTISRDNAKNTVYLQMNSLKPEDTAVYYCATVNKKWRRYDYWGQGTQVTVSS,high polyreactivity
23,QVQLVESGGGLVQAGGSLRLSCAASGSILSGNTMGWYRPAPGKERELVAAISYGGGSTYYADSVKGRFTISRDNAKNTVYLQMNSLKPEDTAVYYCAADPWYVAYLLDGYGMDYWGQGTQVTVSS,low polyreactivity
24,QVQLVESGGGLVQAGGSLRLSCAASGSILSYNAMGWYRQAPGKERELVATITGTGGSTRYADSVKGRFTISRDNAKNTVYLQMNSLKPEDTAVYYCATAAWWYYRIYHEFGYWGQGTQVTVSS,high polyreactivity
25,QVQLVESGGGLVQAGGSLRLSCAASGSILSYYAMGWYRQAPGKERELVAAISKSGGRTYYADSVKGRFTISRDNAKNTVYLQMNSLKPEDTAVYYCAAPATYKYDYWGQGTQVTVSS,high polyreactivity
26,QVQLVESGGGLVQAGGSLRLSCAASGSILTHYAMGWYRQAPGKERELVAAITWRGGSTYYADSVKGRFTISRDNAKNTVYLQMNSLKPEDSAVYYCNADYFGGGDYWGQGTQVTVSS,low polyreactivity
27,QVQLVESGGGLVQAGGSLRLSCAASGSILTSYAMGWSRQAPGKERELVAAISTTGGSTYYADSVKGRFTISRDNAKNTVYLQMNRLKPEDSAVYYCAAAGRTYRPGTGGYGYWGQGTQVTVSS,low polyreactivity
28,QVQLVESGGGLVQAGGSLRLSCAASGSILTVYAMGWYRQAHGKERELVARIRSGDRTYYADSVKGRFTISRDNAKNTVYLQMNSLKPEDTAVYYCAAGSQRRYYHTNWDSFNYWGQGTQVTVSS,low polyreactivity
29,QVQLVESGGGLVQAGGSLRLSCAASGSILVGNAMGWYRQAPGIERELVAGSSESDGSTNYADSGKGRFTISRDKSKNTVYLPMNSLKPEETAVYYRAADIWTSGDIPYDYWGQGTQVTVSS,low polyreactivity
30,QVQLVESGGGLVQAGGSLRLSCAASGSILVGYAMGRYRLAPGKERELVAAISFSGGSTYYADSVKGRFTISRDNAKNTVYLQMNRLKQEDTAVYYCAAKRRVWIFYSSSDDYWGQGSQVTVSS,low polyreactivity
